Laboratory results as given in IntAct's records for PubMed 23890821.

B1: Protein Vpu (Human immunodeficiency virus type 1 group M subtype B (isolate HXB2) (HIV-1)), P05919 (parent)
chain: MQPIPIVAIVALVVAIIIAIVVWSIVIIEYRKILRQRKIDRLIDRLIERAEDSGNESEGEISALVEMGVEMGHHAPWDVDDL

Variants of: B1
Settings: with cd4_human CD4, P01730

| Variant | effect of a mutation on the interaction |
| --- | --- |
| I18F;V22F;V26L | decreasing interaction strength |
